{"source": "paper doi:10.1101/705459", "about": "(bioRxiv, 2019)", "binders": {"B1": {"name": "Peptide U12 (canstatin-derived 15-mer) (peptide)", "peptide": "VSIGYLLVKHSQTDQ"}, "B2": {"name": "Peptide S16 (canstatin-derived 15-mer) (peptide)", "peptide": "PAIAIAVHSQDVSIP"}}, "key": {"[1]": {"molecular_target": "T1, CMG2-GST-biotin (human CMG2 vWA domain 40-217, [change], [change], GST fusion, biotin-labelled) (human, UniProt P58335 40-217)", "T1 chain": "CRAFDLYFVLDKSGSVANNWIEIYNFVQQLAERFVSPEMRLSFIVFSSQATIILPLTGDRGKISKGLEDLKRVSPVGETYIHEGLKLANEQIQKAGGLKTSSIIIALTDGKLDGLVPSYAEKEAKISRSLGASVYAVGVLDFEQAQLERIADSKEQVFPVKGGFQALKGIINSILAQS", "experiment": "BLI"}, "[2]": {"molecular_target": "T2, CMG2-488 (human CMG2 vWA domain 40-217, [change], [change], AlexaFluor 488) (human, UniProt P58335 40-217)", "T2 chain": "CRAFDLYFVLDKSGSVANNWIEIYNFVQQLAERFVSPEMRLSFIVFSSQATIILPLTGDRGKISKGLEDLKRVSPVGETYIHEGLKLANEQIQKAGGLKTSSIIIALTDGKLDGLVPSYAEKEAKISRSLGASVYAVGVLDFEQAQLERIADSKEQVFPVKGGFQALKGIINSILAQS", "experiment": "FRET or BRET"}, "[3]": {"molecular_target": "B1", "experiment": "peptide or protein array"}, "[4]": {"molecular_target": "B2", "experiment": "peptide or protein array"}}, "data": [{"binder": "B1", "values": [{"measurement": "Kd", "setting": "[1]", "value": 80, "unit": "µM"}, {"measurement": "IC50", "setting": "[2]", "value": 35, "unit": "µM"}]}, {"binder": "B2", "values": [{"measurement": "Kd", "setting": "[1]", "value": 0.4, "unit": "µM"}, {"measurement": "koff", "setting": "[1]", "value": "~0.0001", "unit": "s⁻¹"}, {"measurement": "kon", "setting": "[1]", "value": "~200", "unit": "M⁻¹ s⁻¹"}, {"measurement": "IC50", "setting": "[2]", "value": 2.7, "unit": "µM"}, {"measurement": "Kd", "setting": "[2]", "value": "100 ± 55", "unit": "nM"}]}, {"binder": "CMG2-biotin (human CMG2 vWA domain 40-217, [change], [change], biotin-labelled) (domain or fragment) CRAFDLYFVLDKSGSVANNWIEIYNFVQQLAERFVSPEMRLSFIVFSSQATIILPLTGDRGKISKGLEDLKRVSPVGETYIHEGLKLANEQIQKAGGLKTSSIIIALTDGKLDGLVPSYAEKEAKISRSLGASVYAVGVLDFEQAQLERIADSKEQVFPVKGGFQALKGIINSILAQS", "values": [{"measurement": "binding result", "setting": "[3]", "value": "binds"}, {"measurement": "binding result", "setting": "[4]", "value": "binds"}]}]}
